Data as given in the supplement of paper PMC9112550, “Optimization of the antimicrobial peptide Bac7 by deep mutational scanning” (BMC Biology, 2022).

System: Escherichia coli TOP10
Assay: shrunken log2 fold change of peptide-encoding DNA abundance (4.5 h post-induction vs induction); higher = less antimicrobial activity (less host growth inhibition)
Details: time post-induction: 4.5 h; library: site-saturation at positions 5, 18, 19, 20
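Note: peptides expressed intracellularly from a pBAD plasmid library in pooled LB shake-flask culture, induced with 0.3% L-arabinose, DNA abundance read by NGS, three biological replicates, DESeq2 with apeglm shrinkage.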

RRIRPRPPRLPRPRPRPWFPPRP
shrunken log2 fold change: -0.215

RRIRDRPPRLPRPRPRPCTYPRP
shrunken log2 fold change: -0.0116

RRIRCRPPRLPRPRPRPTGKPRP
shrunken log2 fold change: 0.355

RRIRSRPPRLPRPRPRPGGIPRP
shrunken log2 fold change: 0.274

RRIRARPPRLPRPRPRPNGDPRP
shrunken log2 fold change: 0.147

RRIRVRPPRLPRPRPRPSGPPRP
shrunken log2 fold change: -0.119

RRIRFRPPRLPRPRPRPTHGPRP
shrunken log2 fold change: -0.0666

RRIRPRPPRLPRPRPRPPQEPRP
shrunken log2 fold change: 0.727

RRIRTRPPRLPRPRPRPYWPPRP
shrunken log2 fold change: -0.424

RRIRRRPPRLPRPRPRPVIQPRP
shrunken log2 fold change: 0.177

RRIRTRPPRLPRPRPRPVASPRP
shrunken log2 fold change: 0.0362

RRIRNRPPRLPRPRPRPHWVPRP
shrunken log2 fold change: -0.0512

RRIRWRPPRLPRPRPRPSFSPRP
shrunken log2 fold change: -0.286

RRIRARPPRLPRPRPRPLINPRP
shrunken log2 fold change: 0.0648

RRIRLRPPRLPRPRPRPFWTPRP
shrunken log2 fold change: 0.0168

RRIRCRPPRLPRPRPRPLEMPRP
shrunken log2 fold change: -0.249

RRIRSRPPRLPRPRPRPGGMPRP
shrunken log2 fold change: 0.446

RRIRCRPPRLPRPRPRPLVFPRP
shrunken log2 fold change: -0.317

RRIRGRPPRLPRPRPRPEHFPRP
shrunken log2 fold change: 0.00955

RRIRCRPPRLPRPRPRPELPPRP
shrunken log2 fold change: 0.762

RRIRMRPPRLPRPRPRPDINPRP
shrunken log2 fold change: 3.07

RRIRCRPPRLPRPRPRPLGIPRP
shrunken log2 fold change: -0.149

RRIRQRPPRLPRPRPRPNVPPRP
shrunken log2 fold change: -0.0402

RRIRTRPPRLPRPRPRPHTRPRP
shrunken log2 fold change: 0.0252

RRIRMRPPRLPRPRPRPNFFPRP
shrunken log2 fold change: 0.128

RRIRYRPPRLPRPRPRPPTNPRP
shrunken log2 fold change: 0.0849

RRIRPRPPRLPRPRPRPWDEPRP
shrunken log2 fold change: -0.151

RRIRDRPPRLPRPRPRPPPCPRP
shrunken log2 fold change: 0.443

RRIRRRPPRLPRPRPRPYLFPRP
shrunken log2 fold change: -0.305

RRIRQRPPRLPRPRPRPDSGPRP
shrunken log2 fold change: -0.0171

RRIRIRPPRLPRPRPRPHCRPRP
shrunken log2 fold change: -0.341

RRIRKRPPRLPRPRPRPFEDPRP
shrunken log2 fold change: -0.136

RRIRPRPPRLPRPRPRPADHPRP
shrunken log2 fold change: -0.015

RRIRARPPRLPRPRPRPVIWPRP
shrunken log2 fold change: 0.322

RRIRNRPPRLPRPRPRPMTDPRP
shrunken log2 fold change: -0.088

RRIRGRPPRLPRPRPRPWNGPRP
shrunken log2 fold change: 0.0616

RRIRDRPPRLPRPRPRPPGHPRP
shrunken log2 fold change: 0.0994

RRIRWRPPRLPRPRPRPLMQPRP
shrunken log2 fold change: 0.217

RRIRCRPPRLPRPRPRPTLIPRP
shrunken log2 fold change: 1.65

RRIRHRPPRLPRPRPRPMTLPRP
shrunken log2 fold change: -0.0135

RRIRVRPPRLPRPRPRPIFAPRP
shrunken log2 fold change: 0.231

RRIRVRPPRLPRPRPRPEAVPRP
shrunken log2 fold change: 0.112

RRIRCRPPRLPRPRPRPSCQPRP
shrunken log2 fold change: -0.375

RRIRCRPPRLPRPRPRPRRNPRP
shrunken log2 fold change: -0.0367

RRIRFRPPRLPRPRPRPWKDPRP
shrunken log2 fold change: -0.192

RRIRNRPPRLPRPRPRPFITPRP
shrunken log2 fold change: -0.783

RRIRLRPPRLPRPRPRPMYNPRP
shrunken log2 fold change: -0.273

RRIRSRPPRLPRPRPRPGNCPRP
shrunken log2 fold change: -0.0261

RRIRKRPPRLPRPRPRPEMPPRP
shrunken log2 fold change: 0.668

RRIRIRPPRLPRPRPRPTTQPRP
shrunken log2 fold change: 0.102

RRIRLRPPRLPRPRPRPRHYPRP
shrunken log2 fold change: -0.127

RRIRSRPPRLPRPRPRPLIQPRP
shrunken log2 fold change: -0.319

RRIRMRPPRLPRPRPRPPIFPRP
shrunken log2 fold change: 0.00125

RRIRCRPPRLPRPRPRPQSRPRP
shrunken log2 fold change: -0.016

RRIRARPPRLPRPRPRPAPRPRP
shrunken log2 fold change: 1.02

RRIRIRPPRLPRPRPRPETCPRP
shrunken log2 fold change: 0.00626

RRIRWRPPRLPRPRPRPLKYPRP
shrunken log2 fold change: -0.384

RRIRLRPPRLPRPRPRPDQRPRP
shrunken log2 fold change: 0.274

RRIRWRPPRLPRPRPRPYPWPRP
shrunken log2 fold change: -0.156

RRIRARPPRLPRPRPRPAELPRP
shrunken log2 fold change: 0.426

RRIRTRPPRLPRPRPRPKQYPRP
shrunken log2 fold change: -0.379

RRIRTRPPRLPRPRPRPLIAPRP
shrunken log2 fold change: 0.112

RRIRKRPPRLPRPRPRPFVNPRP
shrunken log2 fold change: -0.122

RRIRGRPPRLPRPRPRPSFCPRP
shrunken log2 fold change: 0.348

RRIRDRPPRLPRPRPRPVGVPRP
shrunken log2 fold change: 0.189

RRIRFRPPRLPRPRPRPWFVPRP
shrunken log2 fold change: -0.283

RRIRDRPPRLPRPRPRPEADPRP
shrunken log2 fold change: 1.93

RRIRSRPPRLPRPRPRPYKYPRP
shrunken log2 fold change: -0.637

RRIRLRPPRLPRPRPRPASKPRP
shrunken log2 fold change: -0.116

RRIRRRPPRLPRPRPRPTHIPRP
shrunken log2 fold change: 0.274

RRIRLRPPRLPRPRPRPVLPPRP
shrunken log2 fold change: -0.0546

RRIRPRPPRLPRPRPRPSKWPRP
shrunken log2 fold change: -0.242

RRIRFRPPRLPRPRPRPLMRPRP
shrunken log2 fold change: 0.278

RRIRSRPPRLPRPRPRPAQFPRP
shrunken log2 fold change: -0.114

RRIRQRPPRLPRPRPRPWMQPRP
shrunken log2 fold change: -0.062

RRIRFRPPRLPRPRPRPKFDPRP
shrunken log2 fold change: -0.0676

RRIRIRPPRLPRPRPRPFETPRP
shrunken log2 fold change: -0.231

RRIRERPPRLPRPRPRPRTPPRP
shrunken log2 fold change: 0.214

RRIRDRPPRLPRPRPRPPCCPRP
shrunken log2 fold change: -0.124

RRIRYRPPRLPRPRPRPSFWPRP
shrunken log2 fold change: -0.122

RRIRFRPPRLPRPRPRPPCVPRP
shrunken log2 fold change: 0.0878

RRIRRRPPRLPRPRPRPATYPRP
shrunken log2 fold change: -0.0435

RRIRNRPPRLPRPRPRPDVDPRP
shrunken log2 fold change: 0.0446

RRIRQRPPRLPRPRPRPWMVPRP
shrunken log2 fold change: -0.0803

RRIRPRPPRLPRPRPRPPKAPRP
shrunken log2 fold change: -0.0122

RRIRSRPPRLPRPRPRPFLTPRP
shrunken log2 fold change: -0.437

RRIRHRPPRLPRPRPRPGYVPRP
shrunken log2 fold change: -0.211

RRIRARPPRLPRPRPRPYYRPRP
shrunken log2 fold change: -0.183

RRIRWRPPRLPRPRPRPPEDPRP
shrunken log2 fold change: 0.235

RRIRIRPPRLPRPRPRPHYYPRP
shrunken log2 fold change: -0.413

RRIRRRPPRLPRPRPRPNSCPRP
shrunken log2 fold change: -0.0116

RRIRCRPPRLPRPRPRPTTRPRP
shrunken log2 fold change: 0.176

RRIRDRPPRLPRPRPRPLPDPRP
shrunken log2 fold change: 0.701

RRIRVRPPRLPRPRPRPLVKPRP
shrunken log2 fold change: -0.0152

RRIRIRPPRLPRPRPRPQTCPRP
shrunken log2 fold change: -0.141

RRIRLRPPRLPRPRPRPHKNPRP
shrunken log2 fold change: -0.256

RRIRGRPPRLPRPRPRPRAGPRP
shrunken log2 fold change: 1.36

RRIRARPPRLPRPRPRPKYCPRP
shrunken log2 fold change: -0.464

RRIRERPPRLPRPRPRPQAKPRP
shrunken log2 fold change: 0.162

RRIRVRPPRLPRPRPRPDSYPRP
shrunken log2 fold change: 0.0384

RRIRCRPPRLPRPRPRPGFNPRP
shrunken log2 fold change: -0.391

RRIRGRPPRLPRPRPRPTHQPRP
shrunken log2 fold change: 0.615

RRIRIRPPRLPRPRPRPHHYPRP
shrunken log2 fold change: -0.429

RRIRARPPRLPRPRPRPFYQPRP
shrunken log2 fold change: -0.00727

RRIRLRPPRLPRPRPRPQYWPRP
shrunken log2 fold change: -0.275

RRIRERPPRLPRPRPRPDCYPRP
shrunken log2 fold change: -0.0856

RRIRERPPRLPRPRPRPCIGPRP
shrunken log2 fold change: -0.479

RRIRVRPPRLPRPRPRPFFYPRP
shrunken log2 fold change: 0.0563

RRIRHRPPRLPRPRPRPVCVPRP
shrunken log2 fold change: -0.216

RRIRRRPPRLPRPRPRPNRTPRP
shrunken log2 fold change: -0.0707

RRIRDRPPRLPRPRPRPDLCPRP
shrunken log2 fold change: -0.0018

RRIRFRPPRLPRPRPRPIYRPRP
shrunken log2 fold change: -0.122

RRIRARPPRLPRPRPRPDSGPRP
shrunken log2 fold change: 0.18

RRIRPRPPRLPRPRPRPNNLPRP
shrunken log2 fold change: -0.181

RRIRHRPPRLPRPRPRPERNPRP
shrunken log2 fold change: 0.036

RRIRWRPPRLPRPRPRPFFHPRP
shrunken log2 fold change: -0.194

RRIRWRPPRLPRPRPRPSKEPRP
shrunken log2 fold change: -0.267

RRIRWRPPRLPRPRPRPERNPRP
shrunken log2 fold change: -0.117

RRIRHRPPRLPRPRPRPYWAPRP
shrunken log2 fold change: -0.186

RRIRPRPPRLPRPRPRPNQHPRP
shrunken log2 fold change: -0.43

RRIRGRPPRLPRPRPRPQEYPRP
shrunken log2 fold change: -0.00348

RRIRQRPPRLPRPRPRPQYVPRP
shrunken log2 fold change: 0.0318

RRIRLRPPRLPRPRPRPTPEPRP
shrunken log2 fold change: 0.181

RRIRGRPPRLPRPRPRPTSPPRP
shrunken log2 fold change: 0.491

RRIRIRPPRLPRPRPRPLTEPRP
shrunken log2 fold change: -0.044
